Assay results from US6127149.

Molecular target: cultured cells CH3/10T1/2 clone 8 (product of Dainippon Pharmaceutical Co., Ltd.)
Assay: adhesion of cells to coated dish (10 ug/cm^2), 1 hour, DNA of attached cells by spectrophotometer

B1: invariant modified epimorphin fragment: fragment (2) of mouse epimorphin (Examples 10 to 12) (protein)
chain: NGNRTSVDLRIRRTQHSVLSRKFVDVMTEYNEAQILFRERSKGRIQRQLEITGRTTTDDELEEMLESGKPSIFISDIISDSQIT
An absorbance (OD at 260 nm) of attached cells of 0.33 OD at 260 nm was found for B1 in this work.
